The text below walks through data of publication PMC8202348 (2021).

Data set [1] addresses GL3^552–637, N6His- and GST-tagged recombinant protein (Arabidopsis) (UniProt Q9FN69). In words: AlphaScreen or HTRF; ALPHA competition binding, apparent Kd; 100 nM N6His-tagged and 100 nM GST-tagged copies with untagged competitor (R^ACT 0–8 μM, GL3^ACT 0–10 μM); room temperature 2 h; one-site fit.
Data set [2] deals with the molecule itself. In words: biological repeat 2.
Data set [3] concerns the target R^525–610, N6His- and GST-tagged recombinant protein (maize). Put plainly: AlphaScreen or HTRF; ALPHA saturation binding, apparent Kd; N6His-tagged and GST-tagged copies, one at 100 nM (R^ACT) or 500 nM (GL3^ACT), the other 0–4 μM (R^ACT) or 0–5 μM (GL3^ACT); Nickel Chelate donor and anti-GST acceptor beads; room temperature 2 h; one-site fit.
Data set [4] deals with T1, R^525–610 L569H, N6His- and GST-tagged recombinant protein (maize).
T1 chain: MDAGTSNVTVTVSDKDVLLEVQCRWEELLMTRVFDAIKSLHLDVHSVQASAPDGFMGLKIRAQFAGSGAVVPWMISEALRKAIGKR
In words: biological repeat 1.

Data set [5] addresses T2, R^525–610 A573S, N6His- and GST-tagged recombinant protein (maize).
T2 chain: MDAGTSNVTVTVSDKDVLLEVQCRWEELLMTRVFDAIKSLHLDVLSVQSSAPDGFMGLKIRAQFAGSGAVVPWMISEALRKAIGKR
Put plainly: biological repeat 1.

Data set [6] concerns the molecule itself. In words: biological repeat 1.
The target in data set [7] is T1, R^525–610 L569H, N6His- and GST-tagged …. In words: biological repeat 2.
Data set [8] concerns the target T2, R^525–610 A573S, N6His- and GST-tagged …. Put plainly: biological repeat 2.
In data set [9] the target is R^525–610 V568S, N6His- and GST-tagged recombinant protein (maize). Put plainly: AlphaScreen or HTRF; ALPHA saturation binding, apparent Kd; N6His-tagged and GST-tagged copies, one at 100 nM (R^ACT) or 500 nM (GL3^ACT), the other 0–4 μM (R^ACT) or 0–5 μM (GL3^ACT); Nickel Chelate donor and anti-GST acceptor beads; room temperature 2 h; one-site fit.

Consider “untagged GL3^552–637 (from UniProt Q9FN69 552-637) (domain or fragment)”, for which the Kd in data set [1] was 1280 nM.

B1: R^525–610, N6His- and GST-tagged recombinant protein (domain or fragment)
chain: MDAGTSNVTVTVSDKDVLLEVQCRWEELLMTRVFDAIKSLHLDVLSVQASAPDGFMGLKIRAQFAGSGAVVPWMISEALRKAIGKR
For B1, the Kd in data set [2] came to 90 nM; in [3], 100 nM.

B2: R^525–610 V568S, N6His- and GST-tagged recombinant protein (domain or fragment)
chain: MDAGTSNVTVTVSDKDVLLEVQCRWEELLMTRVFDAIKSLHLDSLSVQASAPDGFMGLKIRAQFAGSGAVVPWMISEALRKAIGKR
B2: the Kd in [4] amounted to 340 nM; in [5] it was 290 nM; in data set [6] it was 1850 nM; in data set [7], 310 nM; in [8], 250 nM; in data set [9], 1720 nM.
